Reference: patent publication US20140286952A1 (BOARD OF SUPERVISORS FOR THE UNIVERSITY OF LOUISIA SYSTEM …, published 2014)
One block for each molecule: values may come before it.

Key:
[1] = molecular target: zonula occludens-1 (ZO-1), endogenous protein of prostate cancer cells and tumor specimens (UniProt Q07157); experiment: cell-based or functional assay
[2] = molecular target: zonula occludens-1 (ZO-1), endogenous protein of prostate cancer cells and tumor specimens (UniProt Q07157); experiment: in situ proximity ligation assay in PC-3CTRwt cells, 50 nM CT for 30 seconds
[3] = molecular target: T1, zonula occludens-1 (ZO-1), endogenous protein of prostate cancer cells and tumor specimens (UniProt Q07157 1-1748, limits assumed); experiment: GST pull-down from PC-3 cell lysates, ZO-1 immunoblot
T1 construct: whole, on cells; Intracellular protein; detected in cell lysates or fixed cells with anti-ZO-1 serum; The cells and tissues are human; also called tight junction protein 1; TJP-1
T1 sequence (Q07157 whole entry): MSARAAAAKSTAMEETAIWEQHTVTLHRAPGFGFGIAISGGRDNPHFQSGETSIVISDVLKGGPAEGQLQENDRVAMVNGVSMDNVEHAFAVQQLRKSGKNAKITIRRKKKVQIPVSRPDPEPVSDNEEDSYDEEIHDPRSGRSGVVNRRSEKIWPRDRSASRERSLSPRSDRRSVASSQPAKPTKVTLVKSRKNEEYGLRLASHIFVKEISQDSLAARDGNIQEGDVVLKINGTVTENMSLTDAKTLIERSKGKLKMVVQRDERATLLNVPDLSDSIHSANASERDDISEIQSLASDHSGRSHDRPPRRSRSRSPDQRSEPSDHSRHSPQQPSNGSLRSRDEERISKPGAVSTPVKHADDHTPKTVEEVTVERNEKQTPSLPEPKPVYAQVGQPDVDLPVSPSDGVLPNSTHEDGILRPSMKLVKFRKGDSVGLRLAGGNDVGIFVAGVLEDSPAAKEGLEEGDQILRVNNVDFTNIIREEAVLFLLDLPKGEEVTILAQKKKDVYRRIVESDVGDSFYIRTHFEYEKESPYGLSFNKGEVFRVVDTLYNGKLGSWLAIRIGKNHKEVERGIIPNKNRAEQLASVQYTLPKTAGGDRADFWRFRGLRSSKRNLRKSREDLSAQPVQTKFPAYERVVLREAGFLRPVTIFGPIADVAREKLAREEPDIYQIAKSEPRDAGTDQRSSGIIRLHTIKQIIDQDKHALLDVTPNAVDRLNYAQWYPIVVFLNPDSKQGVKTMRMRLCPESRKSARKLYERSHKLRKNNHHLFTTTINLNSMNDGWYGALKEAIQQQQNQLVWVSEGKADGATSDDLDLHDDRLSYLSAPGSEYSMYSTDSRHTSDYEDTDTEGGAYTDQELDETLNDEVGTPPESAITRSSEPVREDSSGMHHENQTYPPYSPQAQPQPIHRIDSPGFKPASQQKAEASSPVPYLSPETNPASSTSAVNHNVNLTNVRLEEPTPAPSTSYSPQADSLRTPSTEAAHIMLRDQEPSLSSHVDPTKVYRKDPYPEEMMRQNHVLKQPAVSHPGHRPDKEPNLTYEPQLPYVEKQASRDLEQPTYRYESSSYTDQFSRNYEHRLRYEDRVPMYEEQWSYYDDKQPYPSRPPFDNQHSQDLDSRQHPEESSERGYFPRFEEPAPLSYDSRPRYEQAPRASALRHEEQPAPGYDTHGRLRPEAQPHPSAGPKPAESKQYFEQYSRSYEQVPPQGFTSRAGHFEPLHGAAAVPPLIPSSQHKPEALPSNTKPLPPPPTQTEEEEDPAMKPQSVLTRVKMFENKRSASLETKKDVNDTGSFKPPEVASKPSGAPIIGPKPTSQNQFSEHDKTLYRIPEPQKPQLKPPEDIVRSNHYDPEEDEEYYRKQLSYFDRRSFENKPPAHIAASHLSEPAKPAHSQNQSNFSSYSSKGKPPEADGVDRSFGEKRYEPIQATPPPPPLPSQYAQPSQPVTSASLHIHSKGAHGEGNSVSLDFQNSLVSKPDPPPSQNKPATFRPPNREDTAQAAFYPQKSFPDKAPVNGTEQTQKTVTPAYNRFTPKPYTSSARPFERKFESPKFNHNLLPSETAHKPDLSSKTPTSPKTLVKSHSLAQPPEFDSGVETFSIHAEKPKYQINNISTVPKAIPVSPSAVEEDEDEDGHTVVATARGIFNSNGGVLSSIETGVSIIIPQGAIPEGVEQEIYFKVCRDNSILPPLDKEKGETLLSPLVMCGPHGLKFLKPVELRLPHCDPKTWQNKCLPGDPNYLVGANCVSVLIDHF

[4] = molecular target: T1, zonula occludens-1 (ZO-1), endogenous …; experiment: in situ proximity ligation assay in PC-3CTRΔESS cells
[5] = molecular target: T2, ZO-1wt-YFP (wild-type ZO-1 fused to yellow fluorescent protein, ZO-1wt-EYFP-N1) (UniProt Q07157 1-1748); experiment: acceptor photobleaching FRET microscopy in live PC-31 cells
T2 construct: whole, on cells; also called ZO-wt-YFP; ZO-1-YFP; not shown: EYFP of the EYFP-N1 plasmid
T2 sequence (Q07157 whole entry, the tested form may be a part): as the sequence (Q07157 whole entry) above

Sequence of zonula occludens-1 (ZO-1), endogenous protein of prostate cancer cells and tumor specimens (UniProt Q07157) (Q07157 whole entry): as above

decrease in transepithelial electric resistance (TER) of polarized PC-3 cells [1]: 40%
invasion through Matrigel after 50 nM CT [1]: 2.5 fold
fold increase in CTR-ZO-1 interactions (PLA dots) after CT against no CT [2]: 80 fold
Molecule: FLAG-CTRwt (full-length wild-type calcitonin receptor, FLAG-tagged, expressed in PC-3 / PC-31 cells) (from UniProt P30988 25-474)

binding result [3]: no binding (tested: 2 µg fusion protein)
B1: GST-CTR-CΔESS fusion protein (GST fused to the intracellular C-terminal domain of CTRΔESS, aa 441-476) (other, human, UniProt P30988 441-474, looked up)
chain: YICHQELRNEPANNQGEESAEIIPLNIIEQAAAA
notes: range 441-476; also called CTR-C-ΔPDZ; not shown: GST from the pGEX vector

binding result [4]: no binding
B2: FLAG-CTRΔESS (full-length calcitonin receptor with the C-terminal PDZ-binding motif ESSA replaced by AAAA, FLAG-tagged) (receptor, human, UniProt P30988 25-474, looked up)
chain: AFSNQTYPTIEPKPFLYVVGRKKMMDAQYKCYDRMQQLPAYQGEGPYCNRTWDGWLCWDDTPAGVLSYQFCPDYFPDFDPSEKVTKYCDEKGVWFKHPENNRTWSNYTMCNAFTPEKLKNAYVLYYLAIVGHSLSIFTLVISLGIFVFFRSLGCQRVTLHKNMFLTYILNSMIIIIHLVEVVPNGELVRRDPVSCKILHFFHQYMMACNYFWMLCEGIYLHTLIVVAVFTEKQRLRWYYLLGWGFPLVPTTIHAITRAVYFNDNCWLSVETHLLYIIHGPVMAALVVNFFFLLNIVRVLVTKMRETHEAESHMYLKAVKATMILVPLLGIQFVVFPWRPSNKMLGKIYDYVMHSLIHFQGFFVATIYCFCNNEVQTTVKRQWAQFKIQWNQRWGRRPSNRSARAAAAAAEAGDIPIYICHQELRNEPANNQGEESAEIIPLNIIEQAAAA
notes: whole, on cells; also called FLAG-CTR-ΔPDZ; CTRΔPDZ; not shown: FLAG tag at the 5' end of the construct

binding result [5]: no binding
B3: CTRΔESS-CFP (calcitonin receptor with ESSA replaced by AAAA, fused to cyan fluorescent protein, CTRΔESS-ECFP-N1) (receptor, human, UniProt P30988 25-474, looked up)
chain: B2 chain
notes: whole, on cells; also called CTRΔESS (CTRΔPDZ)-CFP; not shown: ECFP of the ECFP-N1 plasmid
